Source: PMC2902519, “Impairment of Protein Trafficking upon Overexpression and Mutation of Optineurin” (PLoS ONE, 2010)

How the values were obtained:
[1] = target: T1, L157A optineurin-GFP (OPTN_(L157A)-GFP) (human, UniProt Q96CV9 1-577, L157A); assay: co-IP; Tet-on inducible RGC5 cells, doxycycline 1 ug/ml 16 h, expressing OPTNWT-, OPTN_(E50K)- or OPTN_(L157A)-GFP; lysate precipitated with polyclonal anti-GFP; eluates blotted with monoclonal anti-Rab8 or anti-TfR and anti-GFP; band intensity ratio relative to wild type
T1 construct: optineurin, human, with the point mutation Leu157 to Ala made by site-directed mutagenesis; also called L157A mutant; not shown: GFP, C-terminal, kept

[2] = target: T2, E50K optineurin-GFP (OPTN_(E50K)-GFP) (human, UniProt Q96CV9 1-577, E50K); assay: as above
T2 construct: optineurin, human, with the glaucoma-associated mutation Glu50 to Lys; also called E50K mutant; not shown: GFP, C-terminal, kept
T2 sequence (Q96CV9 whole entry E50K): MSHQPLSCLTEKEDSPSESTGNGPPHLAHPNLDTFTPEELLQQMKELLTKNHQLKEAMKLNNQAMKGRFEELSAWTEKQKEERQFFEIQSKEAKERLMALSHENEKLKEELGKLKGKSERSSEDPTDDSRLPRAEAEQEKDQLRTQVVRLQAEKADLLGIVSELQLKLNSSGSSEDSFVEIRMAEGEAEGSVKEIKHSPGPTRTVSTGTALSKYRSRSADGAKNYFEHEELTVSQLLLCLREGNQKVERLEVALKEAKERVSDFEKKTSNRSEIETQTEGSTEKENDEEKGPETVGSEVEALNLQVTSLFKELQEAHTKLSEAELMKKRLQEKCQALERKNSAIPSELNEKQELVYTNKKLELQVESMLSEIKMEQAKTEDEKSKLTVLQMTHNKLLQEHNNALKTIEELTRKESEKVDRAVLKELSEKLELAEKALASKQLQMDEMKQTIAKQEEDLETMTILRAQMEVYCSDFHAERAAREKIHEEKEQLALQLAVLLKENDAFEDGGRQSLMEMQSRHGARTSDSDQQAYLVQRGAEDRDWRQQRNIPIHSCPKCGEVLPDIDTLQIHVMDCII

Sequence of endogenous Rab8 of RGC5 cells (P35280 whole entry): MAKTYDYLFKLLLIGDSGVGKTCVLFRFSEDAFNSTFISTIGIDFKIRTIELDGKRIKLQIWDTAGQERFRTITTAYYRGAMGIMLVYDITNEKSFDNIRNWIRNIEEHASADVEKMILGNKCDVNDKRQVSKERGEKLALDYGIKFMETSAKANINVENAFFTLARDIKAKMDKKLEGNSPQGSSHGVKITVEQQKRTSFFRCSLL
T1 sequence (Q96CV9 whole entry L157A): as the sequence (Q96CV9 whole entry E50K) above, with K50E, L157A counted along it

fold reduction of Rab8 binding against OPTNWT-GFP (fold lower than wild type) [1]	fold increase of co-precipitated Rab8 against OPTNWT-GFP (fold higher than wild type) [2]	fold reduction of co-precipitated TfR against wild type optineurin ([1]; partners not purified) [fold lower than wild type]	fold increase of co-precipitated TfR against wild type optineurin ([2]; partners not purified)	Molecule
5	5			endogenous Rab8 of RGC5 cells (from UniProt P35280 1-207) (natural protein)
		~5	~10 fold higher than wild type	endogenous transferrin receptor (TfR) of RGC5 cells (receptor, rat (endogenous in RGC5), UniProt Q99376 1-761, looked up, transferrin receptor, endogenous in rat RGC5 cells, detected as a 95-kDa band by mouse monoclonal anti-human TfR (Zymed); The abstract calls RGC5 a rat cell line; also called 95-kDa TfR; source: endogenous, RGC5 lysate) MMDQARSAFSNLFGGEPLSYTRFSLARQVDGDNSHVEMKLAADEEENADSNMKASVRKPKRFNGRLCFATIAVVIFFLIGFMIGYLGYCKRVEQKEECVRLAEAEEADKSENDETEYVPKSSRLFWADLKTLLSEKLNSIEFTDIIKQLSQNTYTPREAGSQKDENLAYYIENLFHDFKFSKVWRDEHYVKIQVKNSVSQNLVTINSGSNIDPVEAPEGYVAFSKAGEVTGKLVHANFGTKKDFEELNYSVNGSLVIVRAGKITFAEKVANAQSFNAIGVLIYMDRNTFPVVEADLQFFGHAHLGTGDPYTPGFPSFNHTQFPPSQSSGLPSIPVQTISRAAAEKLFKNMEGNCPPSWNIDSSCKLELSQNQNVKLTVNNVLKETRILNIFGVIKGYEEPDRYIVVGAQRDAWGPGVAKSSVGTGLLLKLAQVFSDMISKDGFRPSRSIIFASWTAGDYGAVGATEWLEGYLSSLHLKAFTYINLDKVVLGTSNFKVSASPLLYTLMGKIMQDVKHPIDGKYLYRDSNWISKIEELSLDNAAFPFLAYSGIPAVSFCFCEDEDYPYLGTKLDTYEILIQKVPQLNQMVRTAAEVAGQFIIKLTHDIELTLDYEMYNSKLLSFMKDLNQFKADIKDMGLSLQWLYSARGDYFRATSRLTTDFHNAEKTNRFVMREINDRIMKVEYHFLSPYVSPRESPFRHIFWGSGSHTLSALVENLRLRQKNITAFNETLFRNQLALATWTIQGVANALSGDIWNIDNEF
